Here are results for two molecules from patent publication US20240141039A1 (AGENUS, published 2024).

In experiment [1] the target is T1, wild type full-length human CD96 isoform 2 expressed on CHO cells (human, UniProt P40200-2 22-569).
T1 construct: whole, on cells; also called human CD96-CHO (isoform 2); human CD96 (iso2) CHO cells
T1 sequence (looked up): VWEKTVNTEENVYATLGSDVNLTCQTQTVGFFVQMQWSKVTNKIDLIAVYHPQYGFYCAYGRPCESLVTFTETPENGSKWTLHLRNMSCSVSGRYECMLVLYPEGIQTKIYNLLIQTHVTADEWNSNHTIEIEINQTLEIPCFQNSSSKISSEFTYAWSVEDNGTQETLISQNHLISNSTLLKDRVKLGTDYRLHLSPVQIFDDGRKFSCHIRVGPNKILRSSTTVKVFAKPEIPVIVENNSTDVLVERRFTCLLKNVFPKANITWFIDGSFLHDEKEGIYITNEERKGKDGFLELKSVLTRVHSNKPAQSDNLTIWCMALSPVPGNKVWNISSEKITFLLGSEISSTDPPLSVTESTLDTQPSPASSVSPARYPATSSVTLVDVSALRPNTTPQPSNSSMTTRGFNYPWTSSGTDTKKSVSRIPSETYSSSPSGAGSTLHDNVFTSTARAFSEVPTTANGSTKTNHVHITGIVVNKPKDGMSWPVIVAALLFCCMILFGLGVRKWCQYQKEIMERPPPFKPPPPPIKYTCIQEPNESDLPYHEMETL
Nature of the experiment: flow cytometry, blocking of CD155-Fc-PE binding to human CD96 (isoform 2) CHO cells, geomean of 3 experiments. How it is done: A 4× concentrated intermediate stock of each multispecific molecule was prepared in a microplate. Antibodies were serially diluted 1-to-3 in FACS buffer. […] Lastly, 25 μL of wild type human CD96-CHO cells (isoform 2), prepared as described above, were added to each well. After a 30-minute incubation on ice, the cells were washed twice with cold FACS Buffer, and the cells were analyzed by flow cytometry (BD LSR Fortessa Flow Cytometer). The data were analyzed using the FlowJo software by sequentially gating on the FSC-A vs. SSC-A and SSC-H vs. SSC-A. Mean fluorescence intensity (MFI) values for PE were calculated, and the data were plotted by GraphPad Prism software and analyzed as described above.
For orientation: In flow cytometry, cells or beads pass a laser one at a time.

Experiment [2] addresses T2, full-length ECD of cynomolgus monkey TIGIT (His-tagged) (cynomolgus monkey).
T2 construct: also called His-tagged cynomolgus monkey TIGIT; cyno TIGIT extracellular domain
As to the kind of experiment: SPR Biacore T200, geomean of experiments #1 and #2. How it is done: (§1) Briefly, surface plasmon resonance experiments were performed using a Biacore T200 instrument, and the association rate (kₐ), dissociation rate (kd), and dissociation constant (KD) were calculated from each experiment using a 1:1 binding model with Biacore T200 Evaluation Software.
(§2) Multispecific molecules were captured using a 30-sec injection at a flow rate of 10 μl/min to reach about 350 resonance units (RUs). […] The sensor chip was regenerated between cycles with two 30-sec injections of 10 mM glycine, pH 1.5. Sensorgrams were evaluated and fit to a simple Langmuir 1:1 interaction model using the global data analysis option of BIAevaluation 3.0 software. Data quality was verified by visually inspecting deviations and curve fitting, and by evaluating the parameters of Rₘₐₓ, Chi2, and Tc.
(In general: SPR reads the build-up and loss of mass on a sensor chip optically.)

In experiment [3] the target is T3, full-length isoform 2 ECD of human CD96 with a C89S mutation (His-tagged) (human, UniProt P40200 22-519).
T3 construct: also called His-tagged isoform 2 of human CD96 with a C89S mutation; human CD96 extracellular domain isoform 2 C89S
T3 sequence: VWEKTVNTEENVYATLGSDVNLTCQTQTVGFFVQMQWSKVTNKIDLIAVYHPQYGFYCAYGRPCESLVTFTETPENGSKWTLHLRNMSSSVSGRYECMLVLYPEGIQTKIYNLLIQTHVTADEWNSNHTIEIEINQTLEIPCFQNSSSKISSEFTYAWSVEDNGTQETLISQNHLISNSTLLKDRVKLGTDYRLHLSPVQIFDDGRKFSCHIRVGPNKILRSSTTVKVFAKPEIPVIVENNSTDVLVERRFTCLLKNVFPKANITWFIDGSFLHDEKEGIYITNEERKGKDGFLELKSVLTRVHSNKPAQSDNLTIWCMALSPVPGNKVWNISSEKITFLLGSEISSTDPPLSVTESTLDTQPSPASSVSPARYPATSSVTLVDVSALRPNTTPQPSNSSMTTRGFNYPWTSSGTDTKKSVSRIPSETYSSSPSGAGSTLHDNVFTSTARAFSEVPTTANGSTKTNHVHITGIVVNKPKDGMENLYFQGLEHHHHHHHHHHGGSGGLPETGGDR
As to the kind of experiment: SPR Biacore T200, geomean of experiments #1 and #2. As to the method: as §1, §2

In experiment [4] the target is T4, wild type full-length cynomolgus monkey TIGIT expressed on CHO cells (cynomolgus monkey, UniProt A0A7N9I9V4 89-312).
T4 construct: whole, on cells; also called cynomolgus TIGIT-CHO cells
T4 sequence (A0A7N9I9V4 entry or part of it): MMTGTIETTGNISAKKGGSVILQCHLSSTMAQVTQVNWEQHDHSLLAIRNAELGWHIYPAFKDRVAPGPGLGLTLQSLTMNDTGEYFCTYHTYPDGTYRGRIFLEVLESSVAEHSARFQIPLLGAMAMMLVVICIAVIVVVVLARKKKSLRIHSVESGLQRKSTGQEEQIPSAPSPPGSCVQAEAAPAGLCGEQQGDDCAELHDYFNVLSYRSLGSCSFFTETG
Nature of the experiment: flow cytometry, cynomolgus TIGIT CHO cells, geomean of 2 experiments.

Experiment [5] has as its target T1, wild type full-length human CD96 …. As to the kind of experiment: flow cytometry on CHO cells expressing human CD96 isoform 2, PE anti-human IgG Fc detection. As to the method: For the antibody binding assay, a frozen aliquot of human CD96-CHO cells (isoform 1 or isoform 2) was thawed at 37° C. and then transferred to a tube containing DPBS supplemented with 0.5% Bovine Serum Albumin and 0.05% Sodium Azide (FACS Buffer). Cells were centrifuged at 300 g for five minutes. The supernatant was discarded, and cells resuspended in FACS buffer were seeded in a 96-well U-bottom tissue culture plate at a density of 2×10⁵ cells per well in 50 μL. In a separate microplate, a 2× concentrated intermediate stock of each antibody was prepared. Antibodies were serially diluted 1-to-3 in FACS buffer. A total of 11 working dilutions ranging from 60 μg/mL to 0.001 μg/mL were prepared. Fifty microlitres of each dilution were then transferred to the microplate containing human CD96-CHO cells. The cells were then incubated for 45 minutes at 4° C. […] After a 30-minute incubation on ice, the cells were washed twice with cold FACS Buffer, and the cells were analyzed by flow cytometry (BD LSR Fortessa Flow Cytometer). The data were analyzed using the FlowJo software by sequentially gating the FSC-A vs. SSC-A, and SSC-H vs. SSC-A. Mean fluorescence intensity (MFI) values for PE were calculated, and the data were plotted by GraphPad Prism software.

As a reminder, the IC50 is the concentration that inhibits the measured activity by half. By Kd is commonly meant the concentration at which binding is half-saturated. A word on the EC50: it is the concentration giving half of the maximal effect. A word on the EC50 (read off the curve): it is the midpoint of the concentration-response curve.

B1: anti-TIGIT×CD96 multispecific molecule BA123 (bispecific antibody, human IgG1, kappa, lambda)
heavy 1: QVQLVQSGAEVKKPGASVKVSCKASGYTFTSYGISWVRQAPGQGLEWMGWISAYNANTNYAQKLQGRVTMTTDTSTSTAYMELRSLRSDDTAVYYCARSAGVLGGMDVWGRGTLVTVSSASTKGPSVFPLAPSSKSTSGGTAALGCLVKDYFPEPVTVSWNSGALTSGVHTFPAVLQSSGLYSLSSVVTVPSSSLGTQTYICNVNHKPSNTKVDKRVEPKSCDKTHTCPPCPAPELLGGPDVFLFPPKPKDTLMISRTPEVTCVVVDVSHEDPEVKFNWYVDGVEVHNAKTKPREEQYNSTYRVVSVLTVLHQDWLNGKEYKCKVSNKALPAPIEKTISKAKGQPREPQVYTLPPSREEMTKNQVSLSCAVKGFYPSDIAVEWESNGQPENNYKTTPPVLDSDGSFFLVSKLTVDKSRWQQGNVFSCSVMHEALHNHYTQKSLSLSPG
light 1: not shown
heavy 2: EVQLVQSGAEVKKPGSSVKVSCKASGYTFASYGISWVRQAPGQGLEWMGGITPFFNRVDVAEKFQGRVTITADKSTSTAYIELSSLRSEDTAVYYCARDLRRGGVGDAFDIWGRGTLVTVSSASTKGPSVFPLAPSSKSTSGGTAALGCLVKDYFPEPVTVSWNSGALTSGVHTFPAVLQSSGLYSLSSVVTVPSSSLGTQTYICNVNHKPSNTKVDKRVEPKSCDKTHTCPPCPAPELLGGPDVFLFPPKPKDTLMISRTPEVTCVVVDVSHEDPEVKFNWYVDGVEVHNAKTKPREEQYNSTYRVVSVLTVLHQDWLNGKEYKCKVSNKALPLPEEKTISKAKGQPREPQVYTLPPSREEMTKNQVSLWCLVKGFYPSDIAVEWESNGQPENNYKTTPPVLDSDGSFFLYSKLTVDKSRWQQGNVFSCSVMHEALHNHYTQKSLSLSPG
light 2: QSALTQPRSVSGSPGQSVTISCTGTSPDVGSHAYRSWYQQHPGKAPKLMIYEVSYRPSGVSNRFSGSKSGNTASLTISGLQAEDEADYYCSSYPPSSATVFGAGTKLTVLGQPKAAPSVTLFPPSSEELQANKATLVCLISDFYPGAVTVAWKADSSPVKAGVETTTPSKQSNNKYAASSYLSLTPEQWKSHRSYSCQVTHEGSTVEKTVAPTEC
notes: copies: 1 + 1 + 1 + 1
B1: in experiment [1], the IC50 was 5.63 µg/mL. In addition, the Kd was 4.5 nM in experiment [2] and 81.9 nM in experiment [3]. A half-maximal response in experiment [4] (EC50) required 0.165 µg/mL. For the same molecule, in experiment [5], the “EC50 (read off the curve)” value is roughly 0.2 µg/mL.

B2: anti-TIGIT×CD96 multispecific molecule BA127 (bispecific antibody, human IgG1, kappa, lambda)
heavy 1: QVQLVQSGAEVKKPGASVKVSCKASGYTFTTYALHWVRQAPGQRLEWMGWINTGSGDTKYSQKFQGRVTITRDTSASTAYMELSSLRSEDTAVYYCARSLGVYYGMDVWGQGTLVTVSSASTKGPSVFPLAPSSKSTSGGTAALGCLVKDYFPEPVTVSWNSGALTSGVHTFPAVLQSSGLYSLSSVVTVPSSSLGTQTYICNVNHKPSNTKVDKRVEPKSCDKTHTCPPCPAPELLGGPDVFLFPPKPKDTLMISRTPEVTCVVVDVSHEDPEVKFNWYVDGVEVHNAKTKPREEQYNSTYRVVSVLTVLHQDWLNGKEYKCKVSNKALPAPIEKTISKAKGQPREPQVYTLPPSREEMTKNQVSLSCAVKGFYPSDIAVEWESNGQPENNYKTTPPVLDSDGSFFLVSKLTVDKSRWQQGNVFSCSVMHEALHNHYTQKSLSLSPG
light 1: not shown
heavy 2: B1 heavy 2
light 2: B1 light 2
notes: Anti-CD96 arm = BA139, anti-TIGIT arm = BA150; copies: 1 + 1 + 1 + 1
In the case of B2, the concentration for half-maximal inhibition (IC50) in experiment [1] was determined as 1.99 µg/mL. Also, the dissociation constant Kd in experiment [2] turned out to be 4 nM; in experiment [3] it was 19.6 nM. In experiment [4], this molecule yielded an EC50 of 0.258 µg/mL. In experiment [5], the “EC50 (read off the curve)” value is roughly 0.03 µg/mL.
